System: Escherichia coli TOP10
Assay: shrunken log2 fold change of peptide-encoding DNA abundance (4.5 h post-induction vs induction); higher = less antimicrobial activity (less host growth inhibition)
Conditions: time post-induction: 4.5 h; library: site-saturation at positions 5, 18, 19, 20
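Also: peptides expressed intracellularly from a pBAD plasmid library in pooled LB shake-flask culture, induced with 0.3% L-arabinose, DNA abundance read by NGS, three biological replicates, DESeq2 with apeglm shrinkage.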

Row | Sequence | shrunken log2 fold change
1 | RRIRNRPPRLPRPRPRPEDFPRP | 0.0401
2 | RRIRLRPPRLPRPRPRPSGPPRP | -0.216
3 | RRIRCRPPRLPRPRPRPGLPPRP | 0.143
4 | RRIRPRPPRLPRPRPRPILIPRP | -0.106
5 | RRIRQRPPRLPRPRPRPVVNPRP | -0.126
6 | RRIRDRPPRLPRPRPRPARLPRP | 0.382
7 | RRIRLRPPRLPRPRPRPEMCPRP | 0.0636
8 | RRIRTRPPRLPRPRPRPTSDPRP | 0.0524
9 | RRIRHRPPRLPRPRPRPQWFPRP | -0.0606
10 | RRIRWRPPRLPRPRPRPGYQPRP | -0.00973
11 | RRIRRRPPRLPRPRPRPTQIPRP | -0.0829
12 | RRIRPRPPRLPRPRPRPYVKPRP | -0.172
13 | RRIRGRPPRLPRPRPRPDVKPRP | 0.356
14 | RRIRLRPPRLPRPRPRPPTRPRP | 0.677
15 | RRIRFRPPRLPRPRPRPHNAPRP | -0.54
16 | RRIRHRPPRLPRPRPRPADRPRP | -0.0209
17 | RRIRHRPPRLPRPRPRPGFAPRP | 0.142
18 | RRIRSRPPRLPRPRPRPKRMPRP | 0.00691
19 | RRIRCRPPRLPRPRPRPQREPRP | -0.0986
20 | RRIRCRPPRLPRPRPRPLDRPRP | -0.478
21 | RRIRPRPPRLPRPRPRPPLCPRP | 0.281
22 | RRIRWRPPRLPRPRPRPIACPRP | 0.0997
23 | RRIRKRPPRLPRPRPRPYICPRP | 0.0572
24 | RRIRCRPPRLPRPRPRPCKMPRP | 5.36
25 | RRIRYRPPRLPRPRPRPRVLPRP | -0.322

Row | Sequence | shrunken log2 fold change
26 | RRIRYRPPRLPRPRPRPVWWPRP | 0.113
27 | RRIRVRPPRLPRPRPRPHDCPRP | -0.162
28 | RRIRERPPRLPRPRPRPHHPPRP | -0.197
29 | RRIRNRPPRLPRPRPRPPPGPRP | 0.863
30 | RRIRGRPPRLPRPRPRPYYHPRP | -0.204
31 | RRIRYRPPRLPRPRPRPTVMPRP | -0.176
32 | RRIRHRPPRLPRPRPRPYNSPRP | 0.0224
33 | RRIRWRPPRLPRPRPRPFVSPRP | -0.135
34 | RRIRDRPPRLPRPRPRPHATPRP | 0.985
35 | RRIRGRPPRLPRPRPRPFNAPRP | -0.132
36 | RRIRCRPPRLPRPRPRPGHIPRP | -0.458
37 | RRIRYRPPRLPRPRPRPIYKPRP | -0.396
38 | RRIRGRPPRLPRPRPRPFLRPRP | -0.0587
39 | RRIRKRPPRLPRPRPRPDAVPRP | 0.698
40 | RRIRPRPPRLPRPRPRPNESPRP | -0.00438
41 | RRIRRRPPRLPRPRPRPHSTPRP | 0.0894
42 | RRIRCRPPRLPRPRPRPECTPRP | -0.0491
43 | RRIRGRPPRLPRPRPRPCMMPRP | 0.145
44 | RRIRGRPPRLPRPRPRPHNMPRP | -0.285
45 | RRIRVRPPRLPRPRPRPHKWPRP | -0.0581
46 | RRIRHRPPRLPRPRPRPPMWPRP | 1.04
47 | RRIRKRPPRLPRPRPRPRMLPRP | 0.588
48 | RRIRCRPPRLPRPRPRPSFMPRP | -0.688
49 | RRIRSRPPRLPRPRPRPGRSPRP | 0.109
50 | RRIRMRPPRLPRPRPRPHCRPRP | 0.274

Row | Sequence | shrunken log2 fold change
51 | RRIRQRPPRLPRPRPRPHVYPRP | -0.414
52 | RRIRMRPPRLPRPRPRPCVPPRP | 0.209
53 | RRIRWRPPRLPRPRPRPRRLPRP | 0.474
54 | RRIRQRPPRLPRPRPRPCIRPRP | -0.0303
55 | RRIRDRPPRLPRPRPRPCECPRP | -0.201
56 | RRIRPRPPRLPRPRPRPNKYPRP | -0.662
57 | RRIRGRPPRLPRPRPRPEFYPRP | 0.0687
58 | RRIRDRPPRLPRPRPRPCDPPRP | 0.041
59 | RRIRTRPPRLPRPRPRPSDSPRP | -0.214
60 | RRIRQRPPRLPRPRPRPVCIPRP | -0.39
61 | RRIRERPPRLPRPRPRPNQVPRP | -0.0305
62 | RRIRLRPPRLPRPRPRPTTGPRP | 0.0715
63 | RRIRRRPPRLPRPRPRPHWKPRP | -0.00963
64 | RRIRYRPPRLPRPRPRPGWTPRP | -0.103
65 | RRIRERPPRLPRPRPRPLFRPRP | 1.09
66 | RRIRDRPPRLPRPRPRPTIEPRP | 0.324
67 | RRIRRRPPRLPRPRPRPVDHPRP | 0.34
68 | RRIRNRPPRLPRPRPRPDLPPRP | -0.221
69 | RRIRARPPRLPRPRPRPEDTPRP | 0.625
70 | RRIRNRPPRLPRPRPRPFLNPRP | -0.392
71 | RRIRHRPPRLPRPRPRPLWCPRP | -0.22
72 | RRIRWRPPRLPRPRPRPEVPPRP | 0.0568
73 | RRIRKRPPRLPRPRPRPDLGPRP | 0.0986
74 | RRIRERPPRLPRPRPRPQCIPRP | 0.0341
75 | RRIRGRPPRLPRPRPRPFGIPRP | -0.0144

Row | Sequence | shrunken log2 fold change
76 | RRIRTRPPRLPRPRPRPTFWPRP | 0.467
77 | RRIRFRPPRLPRPRPRPNTQPRP | -0.309
78 | RRIRYRPPRLPRPRPRPCVRPRP | 0.0523
79 | RRIRSRPPRLPRPRPRPVIIPRP | -0.254
80 | RRIRGRPPRLPRPRPRPMGFPRP | 0.315
81 | RRIRCRPPRLPRPRPRPNIPPRP | -0.822
82 | RRIRYRPPRLPRPRPRPKMMPRP | -1.3
83 | RRIRFRPPRLPRPRPRPWGIPRP | -0.0116
84 | RRIRMRPPRLPRPRPRPPEVPRP | 1.25
85 | RRIRPRPPRLPRPRPRPSFTPRP | -0.213
86 | RRIRKRPPRLPRPRPRPQYAPRP | 0.0233
87 | RRIRKRPPRLPRPRPRPKYNPRP | -0.267
88 | RRIRIRPPRLPRPRPRPLREPRP | 0.255
89 | RRIRSRPPRLPRPRPRPPQSPRP | 0.373
90 | RRIRGRPPRLPRPRPRPDELPRP | 0.955
91 | RRIRLRPPRLPRPRPRPHWFPRP | -0.08
92 | RRIRGRPPRLPRPRPRPNLPPRP | 0.133
93 | RRIRGRPPRLPRPRPRPFAMPRP | 0.68
94 | RRIRNRPPRLPRPRPRPRGVPRP | 0.195
95 | RRIRLRPPRLPRPRPRPDEIPRP | -0.0542
96 | RRIRTRPPRLPRPRPRPYFTPRP | -1.11
97 | RRIRARPPRLPRPRPRPRLMPRP | 0.216
98 | RRIRKRPPRLPRPRPRPFPFPRP | -0.255
99 | RRIRLRPPRLPRPRPRPPCQPRP | 0.062
100 | RRIRDRPPRLPRPRPRPQRCPRP | 0.121

Row | Sequence | shrunken log2 fold change
101 | RRIRNRPPRLPRPRPRPIAAPRP | 0.147
102 | RRIRYRPPRLPRPRPRPMRLPRP | -0.039
103 | RRIRCRPPRLPRPRPRPPGTPRP | 0.519
104 | RRIRDRPPRLPRPRPRPFDMPRP | 0.0213
105 | RRIRGRPPRLPRPRPRPWSFPRP | -0.113
106 | RRIRFRPPRLPRPRPRPTYKPRP | -0.42
107 | RRIRPRPPRLPRPRPRPWLKPRP | -0.371
108 | RRIRLRPPRLPRPRPRPLWAPRP | 0.129
109 | RRIRDRPPRLPRPRPRPKNHPRP | -0.195
110 | RRIRDRPPRLPRPRPRPEFGPRP | 0.914
111 | RRIRFRPPRLPRPRPRPENRPRP | -0.0215
112 | RRIRNRPPRLPRPRPRPGETPRP | 0.0546
113 | RRIRMRPPRLPRPRPRPKGIPRP | 0.0647
114 | RRIRMRPPRLPRPRPRPYGAPRP | -0.105
115 | RRIRWRPPRLPRPRPRPRPFPRP | 0.56
116 | RRIRTRPPRLPRPRPRPWIKPRP | -0.231
117 | RRIRPRPPRLPRPRPRPDWDPRP | 0.00947
118 | RRIRIRPPRLPRPRPRPAFCPRP | 0.167
119 | RRIRKRPPRLPRPRPRPRMAPRP | 0.818
120 | RRIRKRPPRLPRPRPRPPTDPRP | 0.544
121 | RRIRKRPPRLPRPRPRPSLLPRP | -0.0176
122 | RRIRVRPPRLPRPRPRPGNGPRP | 0.023
123 | RRIRERPPRLPRPRPRPYDKPRP | -1.41
124 | RRIRQRPPRLPRPRPRPTVSPRP | -0.14
125 | RRIRDRPPRLPRPRPRPQFEPRP | 0.0888

Row | Sequence | shrunken log2 fold change
126 | RRIRNRPPRLPRPRPRPIVTPRP | -0.179
127 | RRIRKRPPRLPRPRPRPHRRPRP | 3.99
128 | RRIRTRPPRLPRPRPRPISIPRP | -0.477
129 | RRIRVRPPRLPRPRPRPKKEPRP | 0.18
130 | RRIRSRPPRLPRPRPRPINIPRP | -0.589
131 | RRIRMRPPRLPRPRPRPNIVPRP | 0.0335
132 | RRIRYRPPRLPRPRPRPWLYPRP | -0.613
133 | RRIRLRPPRLPRPRPRPEQSPRP | -0.0314
134 | RRIRYRPPRLPRPRPRPEPAPRP | 0.168
135 | RRIRARPPRLPRPRPRPVARPRP | 0.647
136 | RRIRNRPPRLPRPRPRPAHVPRP | -0.0508
137 | RRIRGRPPRLPRPRPRPTAIPRP | 0.974
138 | RRIRRRPPRLPRPRPRPMFIPRP | -0.275
139 | RRIRWRPPRLPRPRPRPEDWPRP | 0.947
140 | RRIRYRPPRLPRPRPRPHITPRP | -0.538
141 | RRIRWRPPRLPRPRPRPDGGPRP | -0.0355
142 | RRIRNRPPRLPRPRPRPSYKPRP | -0.819
143 | RRIRNRPPRLPRPRPRPTTFPRP | -0.337
144 | RRIRVRPPRLPRPRPRPMWQPRP | -0.0393
145 | RRIRPRPPRLPRPRPRPKKGPRP | -0.0676
146 | RRIRRRPPRLPRPRPRPHWGPRP | 0.291
147 | RRIRTRPPRLPRPRPRPKFDPRP | -0.0528
148 | RRIRTRPPRLPRPRPRPAPRPRP | 1.39
149 | RRIRKRPPRLPRPRPRPSGLPRP | -0.0301
150 | RRIRARPPRLPRPRPRPFMKPRP | 0.528
